In patent US20120322725A1 (INDIANA UNIVERSITY RESEARCH AND TECHNOLOGY, published 2012):
Square brackets hold non-standard residues; d marks the D form. Ends that are not written are not given here. Abu(4-SO3H) = N[C@@H](CCS(=O)(=O)O)C(=O)O; PhLac = O=C(O)[C@@H](O)Cc1ccccc1

Assays:
[1] = biological target: T1, glucagon receptor (UniProt P47871 26-477, limits assumed); test: cell-based or functional assay
[2] = biological target: T1, glucagon receptor; test: column IC50(nM) beside the cAMP columns of Table H; taken as receptor binding
[3] = biological target: T1, glucagon receptor; test: receptor binding, method not described
[4] = biological target: T1, glucagon receptor; test: cell-based or functional assay; remark: listed apart in the source

T1 sequence (P47871 26-477 limits assumed): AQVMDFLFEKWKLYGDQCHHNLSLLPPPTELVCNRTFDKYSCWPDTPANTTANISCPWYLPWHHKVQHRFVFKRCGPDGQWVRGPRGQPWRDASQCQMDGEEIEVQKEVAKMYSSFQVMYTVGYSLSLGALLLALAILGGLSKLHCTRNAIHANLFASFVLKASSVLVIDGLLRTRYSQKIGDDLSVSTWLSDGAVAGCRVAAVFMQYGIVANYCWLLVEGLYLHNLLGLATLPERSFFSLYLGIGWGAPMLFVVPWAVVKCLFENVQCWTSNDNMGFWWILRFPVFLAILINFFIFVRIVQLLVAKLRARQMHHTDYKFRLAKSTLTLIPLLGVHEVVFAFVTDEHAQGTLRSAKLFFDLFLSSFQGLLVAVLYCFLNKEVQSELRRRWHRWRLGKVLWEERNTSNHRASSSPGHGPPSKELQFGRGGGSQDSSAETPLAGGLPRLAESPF

Row | cAMP IC50 [1] [nM] | cAMP pA2 [1] | IC50 [2] [nM] | IC50 [3] [nM] | IC50(nM) (cAMP, inhibit Glucagon) 0.1 nM or 0.2 nM [4] | Binder
1 | 98.3 | 6.77 | 33.9 | – | – | TFTSXYSKYLDSRRAQDFVQWLMNT (HELM PEPTIDE1{T.F.T.S.[O=C([C@H](CCS(=O)(=O)O)N[*:1])[*:2]].Y.S.K.Y.L.D.S.R.R.A.Q.D.F.V.Q.W.L.M.N.T.[am]}$$$$V2.0; N-terminus assumed; SMILES CSCC[C@H](NC(=O)[C@H](CC(C)C)NC(=O)[C@H](Cc1c[nH]c2ccccc12)NC(=O)[C@H](CCC(N)=O)NC(=O)[C@@H](NC(=O)[C@H](Cc1ccccc1)NC(=O)[C@H](CC(=O)O)NC(=O)[C@H](CCC(N)=O)NC(=O)[C@H](C)NC(=O)[C@H](CCCNC(=N)N)NC(=O)[C@H](CCCNC(=N)N)NC(=O)[C@H](CO)NC(=O)[C@H](CC(=O)O)NC(=O)[C@H](CC(C)C)NC(=O)[C@H](Cc1ccc(O)cc1)NC(=O)[C@H](CCCCN)NC(=O)[C@H](CO)NC(=O)[C@H](Cc1ccc(O)cc1)NC(=O)[C@H](CCS(=O)(=O)O)NC(=O)[C@H](CO)NC(=O)[C@@H](NC(=O)[C@H](Cc1ccccc1)NC(=O)[C@@H](N)[C@@H](C)O)[C@@H](C)O)C(C)C)C(=O)N[C@@H](CC(N)=O)C(=O)N[C@H](C(N)=O)[C@@H](C)O) [[hCys^9(SO3H)]Glucagon(aa5-29)-NH2]
2 | 68.4 | 7.22 | 41.5 | – | – | GTFTSXYSKYLDSRRAQDFVQWLMNT (HELM PEPTIDE1{G.T.F.T.S.[O=C([C@H](CCS(=O)(=O)O)N[*:1])[*:2]].Y.S.K.Y.L.D.S.R.R.A.Q.D.F.V.Q.W.L.M.N.T.[am]}$$$$V2.0; N-terminus assumed; SMILES CSCC[C@H](NC(=O)[C@H](CC(C)C)NC(=O)[C@H](Cc1c[nH]c2ccccc12)NC(=O)[C@H](CCC(N)=O)NC(=O)[C@@H](NC(=O)[C@H](Cc1ccccc1)NC(=O)[C@H](CC(=O)O)NC(=O)[C@H](CCC(N)=O)NC(=O)[C@H](C)NC(=O)[C@H](CCCNC(=N)N)NC(=O)[C@H](CCCNC(=N)N)NC(=O)[C@H](CO)NC(=O)[C@H](CC(=O)O)NC(=O)[C@H](CC(C)C)NC(=O)[C@H](Cc1ccc(O)cc1)NC(=O)[C@H](CCCCN)NC(=O)[C@H](CO)NC(=O)[C@H](Cc1ccc(O)cc1)NC(=O)[C@H](CCS(=O)(=O)O)NC(=O)[C@H](CO)NC(=O)[C@@H](NC(=O)[C@H](Cc1ccccc1)NC(=O)[C@@H](NC(=O)CN)[C@@H](C)O)[C@@H](C)O)C(C)C)C(=O)N[C@@H](CC(N)=O)C(=O)N[C@H](C(N)=O)[C@@H](C)O) [[hCys^9(SO3H)]Glucagon(aa4-29)-NH2]
3 | – | – | – | 13.8 | 6.9 | XTSDYSKYLDSRRAQDFVQWLMNT (HELM PEPTIDE1{[O=C([C@@H](O)Cc1ccccc1)[*:2]].T.S.D.Y.S.K.Y.L.D.S.R.R.A.Q.D.F.V.Q.W.L.M.N.T.[am]}$$$$V2.0; N-terminus assumed; SMILES CSCC[C@H](NC(=O)[C@H](CC(C)C)NC(=O)[C@H](Cc1c[nH]c2ccccc12)NC(=O)[C@H](CCC(N)=O)NC(=O)[C@@H](NC(=O)[C@H](Cc1ccccc1)NC(=O)[C@H](CC(=O)O)NC(=O)[C@H](CCC(N)=O)NC(=O)[C@H](C)NC(=O)[C@H](CCCNC(=N)N)NC(=O)[C@H](CCCNC(=N)N)NC(=O)[C@H](CO)NC(=O)[C@H](CC(=O)O)NC(=O)[C@H](CC(C)C)NC(=O)[C@H](Cc1ccc(O)cc1)NC(=O)[C@H](CCCCN)NC(=O)[C@H](CO)NC(=O)[C@H](Cc1ccc(O)cc1)NC(=O)[C@H](CC(=O)O)NC(=O)[C@H](CO)NC(=O)[C@@H](NC(=O)[C@@H](O)Cc1ccccc1)[C@@H](C)O)C(C)C)C(=O)N[C@@H](CC(N)=O)C(=O)N[C@H](C(N)=O)[C@@H](C)O) [[PLA6, D9]Glucagon(aa6-29)-NH2]
4 | 147 | – | 13.2 | – | – | SQGTFTS[Abu(4-SO3H)]YSKYLDSRRAQDFVQWLMNT-NH2 [[hCys^9(SO3H)]Glucagon(aa2-29)-NH2]
5 | – | – | – | 14.2 | 40.2 | [PhLac]TS[Abu(4-SO3H)]YSKYLDSRRAQDFVQWLMNT-NH2 [[PLA6, hCys(SO3)9]Glucagon(aa6-29)-NH2]
